This assay concerns the target T1, 人源IL-4R (human IL-4R), overexpressed on LN229, U251 and HEK293 cells (human, UniProt P24394 26-825).
T1 sequence (looked up): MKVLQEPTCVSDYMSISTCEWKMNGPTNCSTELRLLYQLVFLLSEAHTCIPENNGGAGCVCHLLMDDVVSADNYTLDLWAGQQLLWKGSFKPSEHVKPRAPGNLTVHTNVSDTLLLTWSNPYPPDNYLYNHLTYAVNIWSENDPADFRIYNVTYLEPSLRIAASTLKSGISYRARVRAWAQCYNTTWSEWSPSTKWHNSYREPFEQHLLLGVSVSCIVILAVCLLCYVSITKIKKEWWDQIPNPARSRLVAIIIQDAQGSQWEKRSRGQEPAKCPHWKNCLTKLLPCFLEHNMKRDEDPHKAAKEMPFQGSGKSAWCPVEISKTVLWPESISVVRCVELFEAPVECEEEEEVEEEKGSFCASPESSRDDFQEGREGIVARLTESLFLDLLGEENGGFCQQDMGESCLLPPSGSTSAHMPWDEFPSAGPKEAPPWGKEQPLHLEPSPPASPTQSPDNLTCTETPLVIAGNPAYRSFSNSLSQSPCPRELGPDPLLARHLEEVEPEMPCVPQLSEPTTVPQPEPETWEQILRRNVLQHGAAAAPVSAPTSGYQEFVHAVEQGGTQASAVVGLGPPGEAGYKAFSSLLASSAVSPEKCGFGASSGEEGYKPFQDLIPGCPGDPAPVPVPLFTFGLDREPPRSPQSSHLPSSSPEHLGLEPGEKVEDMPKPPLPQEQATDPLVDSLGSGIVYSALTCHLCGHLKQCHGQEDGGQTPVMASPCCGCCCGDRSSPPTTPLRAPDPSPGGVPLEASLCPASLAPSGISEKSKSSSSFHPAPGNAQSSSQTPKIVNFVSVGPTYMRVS
Nature of the assay: cell-based or functional assay.

B1: 25G7-C1, DAR=5.86 (antibody, human IgG1, kappa, V domains shown)
VH: EVQLVESGGGLVQPGGSLRLSCAASGFTFSDYGMHWVRQAPGKGLEWVAFISSGSSIIYYADIVKGRSTISRDNAKNTLYLQMNSLRAEDTAVYYCTRGNKRGFFDYWGQGTLVTVSS
VL: EIVLTQSPATLSLSPGERATLSCRASSSVPYMYWYQQKPGQAPRLLIYLTSNLASGIPARFSGSGSGTDFTLTISSLEPEDFAVYYCQQWRAYPPMLTFGGGTKVEIKR
modifications: 依喜替康类似物 (exatecan analogue) joined through a linker; measured DAR 5.86; attachment residues not stated
Consider B1, for which the “IC50, 体外毒性 in HEK293-IL4R细胞” value stood at 0.458 nM.

B2: 25G7-C1, DAR=3.52 (antibody, human IgG1, kappa, V domains shown)
VH: B1 VH
VL: B1 VL
modifications: 依喜替康类似物 (exatecan analogue) joined through a linker; measured DAR 3.52; attachment residues not stated
Regarding B2, the “IC50, 体外毒性 in HEK293-IL4R细胞” value was determined as 3.29 nM.

The values above are taken from patent CN114652853A (JIANGSU ZHEREI MEDICINE CO LTD; SHANGHAI TENGDI MEDICINE CO …, dated 2022).
